What was measured:
SNU449T7 cells [1] = test: Combination treatment in SNU449T7 xenograft mouse model; type: in vivo; conditions: for inhibited tumor growth relative to the control: Ab27 270, sorafenib 1,200, doxorubicin 20 μg/mouse/dose i.p. twice per week, 6 times in total, alone or combined
Procedure: For combination treatment, SNU449T7 (1×10^6) cells were subcutaneously injected into the mice. When volumes reached about 100 mm^3, the tumor-bearing mice were randomized into control and treatment groups (n=6 per group). Ab27 (270 μg/mouse), sorafenib (1,200 μg/mouse), or doxorubicin (20 μg/mouse) was intraperitoneally (i.p.) injected twice per week (6 times in total). For the combination treatment group, Ab27 and sorafenib or doxorubicin were intraperitoneally (i.p.) injected at 6-hour intervals. Sorafenib was dissolved in DMSO/Cremophor EL/PBS (1:1:8).
(§1) Body weight and tumor volume were measured before injection of the antibody or drug. Tumor volumes were calculated using the formula width^2×length/2). Tumor masses were lysed as described in the literature for immunoblot analysis (J Clin Invest, 2008. 118 (4): pp. 1354-66) or tumor masses were fixed in 10% formalin and embedded in paraffin.
SNU449T7 (1×10^6) cells were mixed with Matrigel and subcutaneously injected into the back, and then Ab27 (270 μg/mouse/dose); sorafenib (1,200 μg/mouse/dose); doxorubicin (20 μg/mouse/dose); a combination of Ab27 (270 μg/mouse/dose) and sorafenib (1,200 μg/mouse/dose) or a combination of doxorubicin (20 μg/mouse/dose); or saline (control) were intraperitoneally injected twice per week (6 times in total) into nude mice (n=6 per group) bearing SNU449T7 xenografts.

[2] = test system: sorafenib-resistant SNU449T7 cells; test: Sorafenib-resistant SNU449T7 cell xenograft model; type: in vivo, mouse
Procedure: SNU449T7 cells were treated with sorafenib (1 μM to 10 μM) for 2 weeks, and the surviving cells (sorafenib-resistant SNU449T7; 1×10^6 cells) were mixed with Matrigel on ice and then injected subcutaneously into the backs of the mice. After 11 days, when tumor volumes reached about 100 mm^3, the tumor-bearing mice were randomized into control and treatment groups (n=7 per group). Ab27 (250 μg/mouse) or sorafenib (400 μg/mouse) was intraperitoneally (i.p.) injected at 2- or 3-day intervals for 2 or 3 weeks (8 times in total).
as §1
The antitumor activity of Ab27 was evaluated in a sorafenib-resistant SNU449T7 cell xenograft model. TM4SF5-overexpressing SNU449T7 cells were treated with sorafenib (1 μM to 10 μM; 3 culture medium changes per week) for 3 weeks, and the surviving sorafenib-resistant cells (1×10^6) were mixed with Matrigel and then subcutaneously injected into the flanks of the nude mice. Ab27 (250 μg/mouse) or sorafenib (400 μg/mouse) was injected at 2- or 3-day intervals (8 times in total).

SNU-398 cells = test: SNU-398 liver cancer xenograft (endogenous TM4SF5); type: in vivo; conditions: Ab27 300, cetuximab 300 or sorafenib 600 μg/mouse/dose
Procedure: as §1
(§2) Formalin-fixed and paraffin-embedded 6-μm-thick tissue sections from xenograft tumors were processed for immunohistochemistry analysis as per the standard protocol. Sections were stained with anti-Ki67 antibody (SP6; Abcam) using the peroxidase technique. The proliferative index (%) was determined by calculating the number of Ki67^+ cells relative to the total number of cells, which consisted of at least 1,000 cells per field. Five randomly selected fields from tumor sections per mouse were analyzed using ImageJ software.

SNU449T7 cells [3] = test: SNU449T7 liver cancer xenograft, Ab27-hz9 versus Ab27 and cetuximab; type: in vivo, mouse
Procedure: SNU449T7 (1×10^7) cells were subcutaneously injected into the flanks of mice. When volumes reached about 100 mm^3, the tumor-bearing mice were randomized into control and treatment groups (n=6 per group). […] Normal human IgG was injected as a negative control.
as §1, §2
The antitumor efficacy of Ab27-hz9 was evaluated in the SNU449T7 xenograft model. SNU449T7 cells (3×10^6) were subcutaneously injected into the flanks of mice.

TM4SF5 [4] = molecular target: T1, TM4SF5 (Homo sapiens, UniProt O14894); test: Immunocytochemistry of SNU449Cp and SNU449Tp cells; type: cell-based; conditions: SNU449Tp versus SNU449Cp; Ab27-hz9 with a stronger level
T1 construct: expressed in transfected cells; SNU449Cp (TM4SF5-low control)
T1 sequence (O14894 1-197): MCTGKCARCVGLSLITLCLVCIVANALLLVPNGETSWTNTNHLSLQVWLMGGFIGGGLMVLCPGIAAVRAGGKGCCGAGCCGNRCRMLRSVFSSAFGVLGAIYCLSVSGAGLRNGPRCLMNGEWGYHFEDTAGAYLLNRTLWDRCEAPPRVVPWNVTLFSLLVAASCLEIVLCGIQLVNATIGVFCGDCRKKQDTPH
Procedure: SNU-449Cp, SNU-449Tp, and HepG2 and HT-29 cells that had been transiently transfected with TM4SF5-specific siRNA were plated on coverslips and incubated for 48 hours. The cells were then fixed for 20 minutes in methanol and permeabilized with acetone for 1 minute. After blocking in 1% normal horse serum, the cells were incubated with Ab27 or Ab27-hz9 ([…]), followed by a corresponding secondary antibody conjugated to FITC. The cells were counterstained with 4,6-diamidino-2-phenylindole (DAPI; Sigma) to visualize nuclei. Immunofluorescent images were acquired under a confocal microscope (LSM 510 META, Carl Zeiss, Jena, Germany).

[5] = test system: SNU449Tp cell-derived tumors; test: In vivo tumor targeting, DyLight 755-labeled antibody, SNU449T7 xenograft; design: species or system mouse; conditions: DyLight 755 label, 96 hours after injection; control IgG mostly in the liver
Procedure: (§3) Ab27, Ab27-hz9, and normal human IgG were conjugated with DyLight 755 and purified using a DyLight 755 Antibody Labeling Kit (Thermo Scientific) according to the manufacturer's instructions. When the size of the tumor formed by SNU449T7 or SNU-398 cell reached about 100 mm^3, 70 μg of dye-labeled antibody was injected into the tail vein of nude mice. The distribution profiles of the antibody were quantified by in vivo fluorescence using IVIS imaging system at 0, 24, 48, 72, and 96 hours after antibody injection. The tumor was removed at 96 hours after injection to determine the distribution of the DyLight755-labeled antibody in tumor tissues.
In order to validate the tumor-targeting ability of anti-TM4SF5 antibodies, the distributions of Ab27 and Ab27-hz9 after injection into SNU449Tp xenograft model were determined. SNU449T7 cells were subcutaneously injected into the flanks of the nude mice so as to prepare mice bearing tumors. Ab27, Ab27-hz9, and control human IgG were labeled with a fluorescent dye (DyLight 755) and […] injected into nude mice bearing SNU449Tp cell-derived tumors. After 96 hours, the distribution of the dye-labeled antibody was quantified by measuring the total photon flux of the fluorescence.

TM4SF5 [6] = molecular target: T1, TM4SF5; test: Internalization analysis of SNU449Tp cells by flow cytometry; type: cell-based; conditions: Ab27 0.3 μg/mL, Ab27-hz9 0.2 μg/mL
Procedure: Cell-surface binding and subsequent internalization of Ab27 and Ab27-hz9 were analyzed using flow cytometry. Briefly, cells were incubated with Ab27 or Ab27-hz9 at 4° C. for 45 minutes, washed to remove unbound antibodies, and then either warmed to 37° C. to allow internalization or maintained at 4° C. Cells were transferred to ice-cold buffer to stop the occurrence of internalization and stained with FITC-conjugated anti-human IgG. PI^− cells were analyzed by flow cytometry. The relative levels of Ab27 or Ab27-hz9 bound to the cell surface were calculated as the shift in the fluorescence signal of the antibody occupancy relative to that detected at the beginning of the internalization period.
For the internalization analysis of SNU449Tp cells with Ab27 and Ab27-hz9, Ab27 (0.3 μg/mL) and Ab27-hz9 (0.2 μg/mL) were used to maintain a similar extent of initial antibody binding to TM4SF5.

TM4SF5 [7] = molecular target: T1, TM4SF5; test: Flow cytometry of SNU449Cp and SNU449Tp cells; type: cell-based
Procedure: To analyze antibody binding to TM4SF5, flow cytometry was performed using SNU449Cp, SNU449Tp, HEK293E, and CT26 cells. HCT-116, SNU-398, HT-29, C8161, and SNU-638 cells that had been transiently transfected with either a TM4SF5-specific siRNA or a negative control siRNA were also analyzed. Cells (2×10^5) were incubated with Ab27 or Ab27-hz9 at 0.03 μg to 0.3 μg at 4° C. for 45 minutes in 100 μL PBS containing 1% BSA. The cells were washed twice with 1% BSA/PBS, followed by a 30-minute incubation with fluorescein isothiocyanate (FITC)-conjugated anti-human IgG (Fc-specific; Pierce, Rockford, Ill., USA). Viable propidium iodide (PI)^− cells were analyzed for antibody binding using FACSCalibur (BD Immunocytometry System, San Jose, Calif., USA). To generate hemagglutinin (HA)-tagged mouse TM4SF5-expression vector, mouse TM4SF5 cDNA (Accession No. NM_029360.3) was subcloned into pCMV-HA-N vector (Clonetech, Mountain View, Calif.). PC3 cells transiently transfected with HA-tagged mouse TM4SF5-expression vector were incubated with Ab27 and anti-HA, and then analyzed by flow cytometry.

[8] = test system: endogenous TM4SF5-expressing tumors; test: In vivo tumor targeting, DyLight 755-labeled antibody, SNU-398 xenograft; design: species or system mouse; conditions: DyLight 755 label, tail vein, 96 hours; control IgG mostly in the liver
Procedure: as §3
Additionally, in vivo tumor targeting of Ab27 and Ab27-hz9 were examined using a SNU-398 xenograft mouse model. To confirm in vivo tumor targeting of Ab27 and Ab27-hz9 in endogenous TM4SF5-expressing liver cancer xenografts, SNU-398 cells were subcutaneously injected into the flanks of the nude mice so as to prepare mice bearing tumors. Ab27, Ab27-hz9, and control human IgG were labeled with DyLight 755 were injected into the tail veil of tumor-bearing mice, and fluorescence was measured after 96 hours.

Row | Molecule | inhibited tumor growth relative to the control (SNU449T7 cells [1]) [%] | immunoblot of xenograft tumor tissues: phosphorylation of FAK, c-Src, p27Kip1, STAT3 and expression of BMI1 ([2]; Ab27 250 μg/mouse or sorafenib 400 μg/mouse) | tumor growth (in words) ([2]; sorafenib 400 μg/mouse/dose, 8 times in total) | Ki67 proliferation index of tumor sections (SNU-398 cells) | inhibited tumor growth (tumor volume) (SNU-398 cells; 6 times in total, normal human IgG control) [%] | phosphorylation of STAT3 in tumor lysates (SNU449T7 cells [1]; sorafenib 1,200 μg/mouse/dose) | level of proliferative Ki67+ cells in tumor sections versus control mice (SNU449T7 cells [3]; 300 μg/mouse/dose) | inhibited tumor growth (tumor volume) (SNU449T7 cells [3]; 300 μg/mouse/dose i.p. 3 or 4 times per week, 12 times in total, normal human IgG control) | body weight (SNU449T7 cells [3]; 300 μg/mouse/dose, 12 times in total) | immunofluorescence staining of membrane edges (TM4SF5 [4]) | distribution of dye-labeled antibody (total photon flux) [5] | residual level of cell surface-bound antibody (TM4SF5 [6]) | binding to SNU449Tp (high-TM4SF5) versus SNU449Cp (TM4SF5-low) cells (TM4SF5 [7]) | distribution of dye-labeled antibody (fluorescence) [8]
1 | COc1cccc2c1C(=O)c1c(O)c3c(c(O)c1C2=O)C[C@@](O)(C(=O)CO)C[C@@H]3O[C@H]1C[C@H](N)[C@H](O)[C@H](C)O1 [doxorubicin] | 26 | – | – | – | – | – | – | – | – | – | – | – | – | –
2 | CNC(=O)c1cc(Oc2ccc(NC(=O)Nc3ccc(Cl)c(C(F)(F)F)c3)cc2)ccn1 [sorafenib] | 42 | relatively moderately decreased the phosphorylation of FAK, c-Src, p27^KiP1, and STAT3 | did not remarkably decrease tumor growth | significantly decreased | 51 | abolished the phosphorylation of STAT3 | – | – | – | – | – | – | – | –
3 | Ab27-hz9: humanized monoclonal antibody of Ab27; VH SEQ ID NO: 7, VL SEQ ID NO: 8; IGHV1-2 and IGKV3-20 frameworks (antibody, V domains shown, VH; VL, humanized monoclonal antibody of Ab27; IGHV1-2 and IGKV3-20 frameworks) VH: QVQLVQSGAEVKKPGASVKVSCKASGYTFTDYEMHWVRQAPGQGLEWMGAIDPETGGTAYNQKFKGRVTMTADKSISTAYMELSRLRSDDTAVYYCARPYLGYWGQGTLVTVSS VL: EIVLTQSPGTLSLSPGERATLSCRSSQSLVHSNGNTYLHWYQQKPGQAPRLLIYKVSNRFSGIPDRFSGSGSGTDFTLTISRLEPEDFAVYYCFQGSHIPLTFGQGTKVEIK | – | – | – | – | – | – | significantly lower | about 66% | without affecting body weight | stained the membrane edges of SNU449Tp cells, but not those of SNU449Cp cells | predominantly localized to the tumors | significantly reduced | bound more efficiently to SNU449Tp cells than to SNU449Cp cells | substantially localized in endogenous TM4SF5-expressing tumors

From US12110325B2, “TM4SF5-targeting humanized antibody and use thereof” (KOREA RESEARCH INSTITUTE OF BIOSCIENCE AND BIOTECHNOLOGY, priority 2022, dated 2024)
